Laboratory results from patent US20230025129A1 (KYMAB, published 2023).
Where a chain is given by its changes, count along the chain named. Numbers in names are those of the source. One block for each binder: values may come before it.

Experiments:
[1] = target: T1, mouse matriptase-2 ECD protein his tag (mouse, UniProt Q9DBI0 80-811); experiment: SPR (Biacore 8K), huIgG4PE captured on anti-human Fc, MTP-2 ECD as analyte, 1:1 fit; off-rate too slow to be determined
T1 construct: aa 80-811 of Q9DBI0 with C-terminal linker and His tag; also called mouse MTP-2 ECD; moMTP-2
T1 sequence: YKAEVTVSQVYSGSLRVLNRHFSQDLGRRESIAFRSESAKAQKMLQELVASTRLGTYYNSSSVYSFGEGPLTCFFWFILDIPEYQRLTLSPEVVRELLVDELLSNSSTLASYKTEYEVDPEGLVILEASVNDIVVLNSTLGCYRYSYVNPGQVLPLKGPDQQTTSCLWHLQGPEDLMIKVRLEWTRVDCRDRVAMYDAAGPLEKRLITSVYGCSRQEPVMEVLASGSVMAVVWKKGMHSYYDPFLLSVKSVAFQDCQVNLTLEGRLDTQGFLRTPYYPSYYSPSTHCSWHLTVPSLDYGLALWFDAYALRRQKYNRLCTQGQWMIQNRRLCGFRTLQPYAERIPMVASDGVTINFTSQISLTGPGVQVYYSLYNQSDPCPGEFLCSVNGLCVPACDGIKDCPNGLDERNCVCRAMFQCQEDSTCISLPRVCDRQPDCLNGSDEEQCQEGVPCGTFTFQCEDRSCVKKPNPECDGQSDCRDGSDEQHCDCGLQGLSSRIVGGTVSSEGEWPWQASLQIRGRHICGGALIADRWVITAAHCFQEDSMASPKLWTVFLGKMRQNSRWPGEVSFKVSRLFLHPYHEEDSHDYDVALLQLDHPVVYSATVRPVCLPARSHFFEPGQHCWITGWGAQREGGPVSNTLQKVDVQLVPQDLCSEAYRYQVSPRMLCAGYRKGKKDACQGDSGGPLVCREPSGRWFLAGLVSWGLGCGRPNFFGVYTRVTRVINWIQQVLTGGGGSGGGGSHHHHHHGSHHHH
Protocol: (§1) Off-rate screening was performed by surface plasmon resonance (SPR), using a Biacore 8K system (GE Healthcare). Anti-human Fc mix (˜1000 RU) were immobilised in both active and reference channels in HBS-P+ buffer (GE BR100671) pH 7.4. Anti-MTP-2 hulgG4PE antibodies were then captured for 60 sec at 10 μl/min at 1 μg/ml concentration (approximatively 35 and 50 RU were captured) only on the active channel. MTP-2 ECD protein analytes were then injected (at 100, 25, 6.25, 1.56 and 0 nM concentrations) for 120 sec (association time) at 30 μl/min and dissociation monitored for 600 sec. Multiple cycle kinetics mode was used with all 8 channels being used. Reference and background were subtracted from the sensorgrams for each antibody and data was fitted using a 1:1 interaction model in the Biacore evaluation software. Rmax, ka, kd globally fitted, RI=0.

[2] = target: T2, human matriptase-2 mask ECD protein his tag (human, UniProt Q8IU80 78-576); experiment: SPR, antibody captured, headless ECD as analyte
T2 construct: MTP-2 ECD without the serine protease domain, with C-terminal linker and His tag; also called headless huMTP-2 ECD 78-576 aa; headless human MTP-2 ECD
T2 sequence: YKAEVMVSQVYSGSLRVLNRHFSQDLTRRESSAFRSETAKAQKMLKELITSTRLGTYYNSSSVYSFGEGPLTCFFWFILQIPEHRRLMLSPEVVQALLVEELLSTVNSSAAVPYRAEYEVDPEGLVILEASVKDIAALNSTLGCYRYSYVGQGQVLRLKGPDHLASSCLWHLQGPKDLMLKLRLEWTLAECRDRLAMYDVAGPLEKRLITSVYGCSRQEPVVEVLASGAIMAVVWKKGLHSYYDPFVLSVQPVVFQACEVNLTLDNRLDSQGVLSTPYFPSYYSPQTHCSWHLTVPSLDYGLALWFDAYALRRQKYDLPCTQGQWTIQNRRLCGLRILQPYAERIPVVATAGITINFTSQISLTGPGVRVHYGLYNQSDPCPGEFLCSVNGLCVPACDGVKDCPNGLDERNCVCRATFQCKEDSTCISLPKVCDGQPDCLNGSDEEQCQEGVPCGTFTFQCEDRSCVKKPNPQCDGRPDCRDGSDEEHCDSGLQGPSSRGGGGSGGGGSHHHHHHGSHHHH
Protocol: as §1
Binding was also assessed using the above SPR method with “headless” huMTP-2 ECD 78-576 aa instead of the full ECD. Headless ECD corresponds to the MTP-2 ECD without the serine protease domain.

[3] = target: T1, mouse matriptase-2 ECD protein his tag; experiment: SPR (Biacore 8K), huIgG4PE captured on anti-human Fc, MTP-2 ECD as analyte, 1:1 fit; true KD could be < the value shown
Protocol: as §1

[4] = target: T1, mouse matriptase-2 ECD protein his tag; experiment: HTRF competition with 647-labelled aprotinin for mouse MTP-2 protein
Excerpt: Aprotinin is a pan serine protease inhibitor and is known to occupy the active site of serine proteases. A HTRF competition assay against labelled aprotinin confirmed that NORI-003, NORI-006, NORI-008 and NORI-011 were binding at or near this same site and competed with aprotinin for binding to human MTP-2 protein. […] This was confirmed by their lack of competition of aprotinin against moMTP-2 while IC50 values in the enzymatic assay were similar to those of NORI-011. […] FIG. 8. Table L.
Antibodies were titrated into HTRF buffer (DPBS (Gibco—14190144) with 0.1% BSA (Sigma—A7906) and potassium fluoride 0.53M (Sigma—60240-250 G)) at 4× conc with a starting concentration of 200 nM. 5 μL/w of antibodies were added to 384-well white plates (Greiner—784904). Purified proteins of huMTP-2 and moMTP-2 were diluted into HTRF buffer (huMTP-2=40 nM and moMTP-2=240 nM) 4× final conc and plate 5 μL/w. Anti-MTP-2 mAb (NORI-037) in molgG1 backbone was then diluted to 1.2 nM 4× final conc with DELFIA Eu-N1 Rabbit Anti-Mouse-IgG antibody (AD0207) at a 1:1000 dilution 4× final conc in HTRF buffer. Finally, dilute 647-labelled Aprotinin (Sigma—A3428) in HTRF buffer to 20 nM 4× final conc and plate 5 μL/w. Incubate plates for 3 hours or more at RT in the dark. Read plate using HTRF 100 flashes protocol on the EnVision plate reader at 1H 2H and 3H. (Ex: 340 nm Em1: 620 nm Em2: 665 nm).

[5] = target: T1, mouse matriptase-2 ECD protein his tag; experiment: SPR, his-tagged MTP-2 ECD protein (Table W); true KD could not be measured accurately, very slow off-rate
Protocol: as §1
NORI-011, NORI-008, NORI-003 and NORI-006 were all found to have cross-reactive binding to human, mouse, cyno and rat MTP-2 ECD proteins. […] The true KD value for NORI-008 could not be measured accurately for human or mouse MTP-2 due to a very slow off-rate.

- koff [1]: ≤ 1e-05 s⁻¹
- Kd [3]: ≤ 0.83 nM
B2: NORI-014 (antibody, human IgG4 S228P, lambda, V domains shown)
VH: EVQLVESGGGLIQAGRSLRLSCAASGFTFDEHVMYWVRQIPGKGLEWISSITWKSDIIAYADSVKGRFTISRDNAKNALYLQMNSLRAEDTALYYCAREKDGDFYYYYFAMDVWGQGTTVTVSS
VL: QSALTQPPSASGSPGQSVTLSCTGTSSDVGYYNYVSWYLQHPGKAPKLMIYEVSKRPSGVPDRFSGSKSANTASLTVSGLQAEDEADYYCSSYAGSNKVVFGGGTKVTVLG
notes: human IgG4PE, lambda
- binding result [2]: no binding (tested: analyte up to 100 nM)

- IC50 [4]: 120 nM
B3: NORI-011 (antibody, human IgG4 S228P, lambda)
heavy: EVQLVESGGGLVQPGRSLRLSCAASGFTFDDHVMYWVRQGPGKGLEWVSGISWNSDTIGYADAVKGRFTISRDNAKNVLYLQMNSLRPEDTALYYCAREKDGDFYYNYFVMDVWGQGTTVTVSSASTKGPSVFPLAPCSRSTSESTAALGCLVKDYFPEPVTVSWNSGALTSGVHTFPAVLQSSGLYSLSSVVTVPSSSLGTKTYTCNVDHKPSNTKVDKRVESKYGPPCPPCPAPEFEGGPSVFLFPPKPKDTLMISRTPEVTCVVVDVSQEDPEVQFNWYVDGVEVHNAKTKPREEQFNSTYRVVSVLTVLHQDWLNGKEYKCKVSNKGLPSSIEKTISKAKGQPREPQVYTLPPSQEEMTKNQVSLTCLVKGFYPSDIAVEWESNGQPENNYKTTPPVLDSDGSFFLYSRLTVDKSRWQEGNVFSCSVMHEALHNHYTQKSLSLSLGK
light: QSALTQPPSASGSPGQSVTISCTGTSSDVGFYNFVSWYQQHPDKAPKVMIYEVSKRPSGVPDRFSGSKSGNTASLTVSGLQAEDEADYYCSSYAGSNKVVFGGGTKLTVLGQPKAAPSVTLFPPSSEELQANKATLVCLISDFYPGAVTVAWKADSSPVKAGVETTTPSKQSNNKYAASSYLSLTPEQWKSHRSYSCQVTHEGSTVEKTVAPTECS
notes: human IgG4PE, lambda; NORI-010 with a P124S mutation in the VH domain

Further lines, the binder ahead of its results:

B1: NORI-013 (antibody, human IgG4 S228P, lambda, V domains shown)
VH: B2 VH with M34I, T52S
VL: B2 VL
notes: human IgG4PE, lambda
- koff [1]: ≤ 1e-05 s⁻¹
- binding result [2]: no binding (tested: analyte up to 100 nM)
- Kd [3]: ≤ 0.949 nM

B4: NORI-008 (antibody, human IgG4 S228P, kappa, V domains shown)
VH: QVQLQESGPGLVKPSETLSLTCSVSGGSVSSGRYYWTWIRQPPGKGLEWIGYISNSGNTNYNPSLKSRVTISLDTSKKQFSLSLSAVTAADTAVYYCARGFIYDYWFDPWGQGSLVTVSS
VL: DSQMTQSPSSLSASVGDRVTITCQASQDIDNYLNWYQQRPGKAPKLLIYDASKLETGVPSRFSGSGSGTDFTFTISSLQPEDFATYYCQQYGNLPITFGQGTRLDIKR
notes: human IgG4PE, kappa, in the in vitro assays; a mouse IgG1 format was used in one in vivo study only; also called NORI-008 hulgG4PE; NORI-008 IgG
- IC50 [4]: 1.42 nM
- Kd [5]: 0.000206 nM
